{"source": "paper doi:10.1101/2020.11.23.394015", "origin": "cited, not measured here", "molecular_target": "Glu89 (UniProt position 105, IDALNENKVLV)", "details": "folded; closed-to-open EF loop (Tanford) transition"}
{"substance": "beta-lactoglobulin (BBL) (Bos taurus)", "values": [{"measurement": "pKa", "result": "~ 7.3"}]}
